Experimental data published in patent CN101007849A.

B1: 抗体12B5(IgG) (antibody, from another filing)
scFv: QVQLVQSGGGLVRPGGSLSLSCAVSGITLRTYGMHWVRQAPGKGLEWVAGISFDGRSEYYADSVQGRFTISRDSSKNTLYLQMNSLRAEDTAVYYCARGAHYGFDIWGQGTMVTVSSGGGGTGGGGSGGGGSDIQMTQSPSTLSASIGDRVTITCRASEGIYHWLAWYQQKPGKAPKLLIYKASSLASGAPSRFSGSGSGTDFTLTISSLQPDDFATYYCQQYSNYPLTFGGGTKLEIK

Assays:
[1] = molecular target: 人TPO受体(MPL)，表达于Ba/F3细胞 (human) (UniProt P40238); assay: cell-based or functional assay
[2] = molecular target: 人TPO受体(MPL)，表达于Ba/F3细胞 (human) (UniProt P40238); assay: cell-based or functional assay; remark: listed apart in the source

| Molecule | ED50，BaF/mpl细胞增殖(WST-8) [1] [nM] | ED50，TPO样激动剂活性(BaF/mpl细胞增殖，WST-8) [2] [nM] |
| --- | --- | --- |
| 人TPO(R&D Systems) (from UniProt P40225 22-353) (ligand) | 0.027 | – |
| B1 | – | 29 |
